The target in data set [1] is RPA-wt (RPA70-RPA32-RPA14 heterotrimer) (Saccharomyces cerevisiae, UniProt P22336;P26754;P26755 1-621;1-273;1-122). The experiment in a line: FRET.
The target in the next data set is scRad52 (Saccharomyces cerevisiae, UniProt P06778 1-471). The experiment in a line: FRET.
Chain of scRad52 (P06778 whole entry): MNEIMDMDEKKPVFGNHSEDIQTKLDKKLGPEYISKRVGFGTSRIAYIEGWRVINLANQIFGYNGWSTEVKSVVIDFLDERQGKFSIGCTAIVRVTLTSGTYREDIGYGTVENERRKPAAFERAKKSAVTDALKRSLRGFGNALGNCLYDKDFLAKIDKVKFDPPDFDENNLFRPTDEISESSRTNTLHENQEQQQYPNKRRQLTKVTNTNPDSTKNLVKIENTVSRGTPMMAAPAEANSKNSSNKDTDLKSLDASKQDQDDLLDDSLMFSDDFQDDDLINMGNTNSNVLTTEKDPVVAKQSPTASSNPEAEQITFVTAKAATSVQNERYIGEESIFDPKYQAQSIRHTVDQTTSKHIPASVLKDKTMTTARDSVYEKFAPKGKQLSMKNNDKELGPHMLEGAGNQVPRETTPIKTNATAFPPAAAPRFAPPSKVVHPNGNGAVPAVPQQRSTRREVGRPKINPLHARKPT

Chain of RPA-wt (RPA70-RPA32-RPA14 heterotrimer) (P22336 whole entry, chain 1 of 3): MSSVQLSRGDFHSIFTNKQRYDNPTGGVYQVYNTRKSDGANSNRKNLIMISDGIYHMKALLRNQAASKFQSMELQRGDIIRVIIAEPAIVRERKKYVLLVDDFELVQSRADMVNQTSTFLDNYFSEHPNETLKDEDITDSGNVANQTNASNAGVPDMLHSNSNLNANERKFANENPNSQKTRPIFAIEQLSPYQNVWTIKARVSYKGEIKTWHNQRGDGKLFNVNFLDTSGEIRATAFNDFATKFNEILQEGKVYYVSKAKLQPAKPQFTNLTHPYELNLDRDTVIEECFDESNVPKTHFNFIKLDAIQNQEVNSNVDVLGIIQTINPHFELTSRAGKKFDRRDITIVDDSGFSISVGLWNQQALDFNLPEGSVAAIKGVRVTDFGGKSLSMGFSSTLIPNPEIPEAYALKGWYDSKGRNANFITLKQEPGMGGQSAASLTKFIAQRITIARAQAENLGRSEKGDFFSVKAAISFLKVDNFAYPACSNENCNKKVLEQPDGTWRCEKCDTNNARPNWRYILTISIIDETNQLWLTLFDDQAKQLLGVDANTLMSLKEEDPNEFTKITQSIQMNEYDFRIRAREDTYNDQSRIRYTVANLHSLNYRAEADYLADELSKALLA
Chain of RPA-wt (RPA70-RPA32-RPA14 heterotrimer) (P26754 whole entry, chain 2 of 3): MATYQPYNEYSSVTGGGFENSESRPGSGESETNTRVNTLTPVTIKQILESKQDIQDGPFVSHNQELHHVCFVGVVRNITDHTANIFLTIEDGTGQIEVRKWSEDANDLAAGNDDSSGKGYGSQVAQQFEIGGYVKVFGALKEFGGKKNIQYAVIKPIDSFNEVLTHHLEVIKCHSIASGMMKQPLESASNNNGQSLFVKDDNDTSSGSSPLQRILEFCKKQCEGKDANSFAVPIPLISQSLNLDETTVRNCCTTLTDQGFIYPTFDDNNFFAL
Chain of RPA-wt (RPA70-RPA32-RPA14 heterotrimer) (P26755 whole entry, chain 3 of 3): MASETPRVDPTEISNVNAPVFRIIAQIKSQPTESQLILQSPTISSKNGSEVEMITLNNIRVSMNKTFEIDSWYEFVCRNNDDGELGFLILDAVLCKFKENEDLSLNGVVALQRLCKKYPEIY

On to TTTTTTTTTTTTTTTTTTTTTTTTTTTTTT (ssDNA) [Cy3-dT30-Cy5], for which the binding result (in data set [1]; in the data set with scRad52) was “binds” in each case.
